The source of these data is patent publication US20240082313A1, “PHARMACEUTICAL COMPOSITIONS AND THEIR METHODS OF USE” (The Trustees of Indiana University, priority 2021, published 2024).

The test system of assay [1] is 4T1.2 mouse mammary tumor cells. The assay can be described thus: Tumor selectivity from MTT-based viability (tumor vs non-tumor cells). In kind it is cell-based. An excerpt:
(§1) Variations in tumor selectivity among the predicted tumor-suppressing proteins. Tumor-suppressing proteins may inhibit the progression of tumor cells but not inhibit the progression of non-tumor cells. Using the MTT-based viability, tumor selectivity was defined as a ratio of (reduction in MTT-based viability of tumor cells) to (reduction in MTT-based viability of non-tumor cells). The tumor selectivity may be above one to remove tumor cells and a larger value may signify a reduction in the inhibition of the growth of non-tumor cells. The tumor selectivity was determined using three tumor cells (4T1.2 mouse mammary tumor cells, EO771 mammary tumor cells, and MDA-MB-231 breast cancer cells) and three non-tumor cells (adipose cells, MLO-A5 osteocytes, and murine MSCs). […] Table 2 provides the tumor selectivity of 4T1.2 Oct4 CM, 4T1.2 c-Myc CM, and 10 tumor-suppressing protein candidates.

Assay [2] relates to EO771 mammary tumor cells. The description is as above. In kind it is cell-based, mouse. The settings on record: tumor cells EO.
Excerpt: as §1

Assay [3] has as its system MDA-MB-231 breast cancer cells. The description is as above. In kind it is cell-based, human.
Excerpt: as §1

The subject of assay [4] is 4T1.2 cells. The assay can be described thus: TRANSWELL invasion assay. It counts as cell-based, mouse. The method, then: TRANSWELL® invasion assay. In a TRANSWELL® invasion assay, approximately 5×10^4 cells in 200 μL serum-free DMEM were placed on the upper TRANSWELL® chamber (Thermo Fisher Scientific, Waltham, MA, USA) with MATRIGEL™ (100 μg/ml), and 800 μL of CM was added in the lower chamber. After 48 h, the cells that had invaded the lower side of the membrane were stained with Crystal Violet. At least five randomly chosen images were taken, and the average number of stained cells was determined.

The subject of assay [5] is 4T1.2 cells. Briefly: Western blot analysis. In kind it is cell-based, mouse. The settings on record: for level of Kdm3a: 4T1.2 cells; for Lrp5, MMP9, Runx2, TGFβ, and Snail: recombinant protein applied extracellularly to 4T1.2 cells. The method, then: Western blot analysis. Cultured cells were lysed in a radio-immunoprecipitation assay (RIPA) buffer and proteins were fractionated by 10-15% SDS gels and electro-transferred to polyvinylidene difluoride (PVDF) transfer membranes (Millipore, Billerica, MA, USA). The membrane was incubated overnight with primary antibodies and then with secondary antibodies conjugated with horseradish peroxidase (Cell Signaling, Danvers, MA, USA). Antibodies against c-Myc, Oct4, Sox2, Klf4, Lrp5, Runx2, Snail, TGFβ, Eno1, Eef2, vinculin (Cell Signaling, Danvers, MA, USA), MMP9, NFATc1, cathepsin K (Santa Cruz, Dallas, TX, USA), TRAIL (Novus, Centennial, CO, USA), p53 (Invitrogen, Carlsbad, CA, USA), Hsp90ab1 (Abcam, Cambridge, UK), Kdm3a (Thermo-Fisher Scientific, Waltham, MA, USA) and β-actin as a control (Sigma, St. Louis, MO, USA) were employed. The level of proteins was determined using a SUPERSIGNAL™ west femto maximum sensitivity substrate (Thermo-Fisher Scientific, Waltham, MA, USA), and a luminescent image analyzer (LAS-3000, Fuji Film, Tokyo, Japan) was used to quantify signal intensities.
Background: Immunoblotting shows a protein as a band on a membrane.

The next assay relates to adipose-derived MSCs. The assay can be described thus: MTT-based viability of non-tumor cells. It counts as cell-based, human.
Excerpt: as §1

In assay [6] the test system is EO771 mammary tumor cells. The assay can be described thus: Wound-healing scratch assay. In kind it is cell-based, mouse. The conditions noted are these: EO771 cells. The method, then:
Two-dimensional motility assay. A wound-healing scratch motility assay was performed to measure 2-dimensional cell motility. Cells were seeded in 12-well plates, after cell attachment, a plastic pipette tip was used to scratch a gap on the cell layer. Images of the cell-free scratch zone were obtained via an inverted microscope at 0 h, and the areas newly occupied with cells were determined 48 h after scratching. The areas were quantified with Image J (National Institutes of Health, Maryland, USA).
Scratch assay. A wound-healing scratch assay was conducted to evaluate 2-dimensional migratory behavior. Approximately 4×10^5 cells were seeded in 12-well plates. After cell attachment, a plastic pipette tip was used to scratch a gap on the cell layer. After the removal of the floating cells, CM was added. Images of the cell-free scratch zone were collected at 0 h, and the areas newly occupied with cells were determined 24-48 h after scratching. The areas were quantified with IMAGE J™ (National Institutes of Health, Bethesda, MD, USA).

A further assay concerns EO771 tumor cells. Briefly: MTT-based viability. In kind it is cell-based, mouse.
Assay [7] deals with TRAMP prostate tumor cells. The assay can be described thus: EdU assay. The conditions noted are these: EdU-based. It counts as cell-based. The method, then:
(§2) EdU assays. Two thousand cells were seeded in 96-well plates on day 1, CM was added on day 2, and cellular proliferation was examined using a fluorescence-based cell proliferation kit (CLICK-IT™ EdU ALEXA FLUOR™ 488 Imaging Kit; Thermo-Fisher, Waltham, MA, USA). After fluorescent labeling, the number of fluorescently labeled cells were counted and the ratio to the total number of cells was determined.

Assay [8] relates to TRAMP prostate tumor cells. The assay can be described thus: TRANSWELL invasion assay. In kind it is cell-based. The method, then: (§3) Invasion assay. The invasion capacity of cancer cells was determined using a 24-well plate, TRANSWELL® chambers (Thermo Fisher Scientific, Waltham, MA, USA) with […] pore size and MATRIGEL™. Cell invasion was measured in TRANSWELL® chambers with a coating including MATRIGEL™ (100 μg/ml). The cells in 200 μL serum-free DMEM were placed on the upper chamber and 800 μL iTS CM was added in the lower chamber. After 24 h, the cells that had invaded the lower side of the membrane were stained with Crystal Violet. At least five randomly chosen images were taken under a microscope, and the average number of stained cells that represented the relative invasion was determined.

In assay [9] the test system is PANC-1 pancreatic tumor cells. The assay can be described thus: EdU assay. The conditions noted are these: PANC-1 cells, EdU-based. In kind it is cell-based, human. The method, then:
as §2

Assay [10] deals with PANC-1 pancreatic tumor cells. Briefly: TRANSWELL invasion assay. It counts as cell-based, human. The conditions noted are these: PANC-1 cells. The method, then: as §3
The subject of the next assay is EO771 cells. Briefly: Western blot analysis. It counts as cell-based, mouse. The method, then: Western blot analysis. Cultured cells were lysed in a radio-immunoprecipitation assay buffer with protease inhibitors (Santa Cruz Biotechnology, Santa Cruz, CA, USA) and phosphatase inhibitors (Calbiochem, Billerica, MA, USA). After cell lysis, proteins were fractionated by 10-15% SDS gels and electro-transferred to polyvinylidene difluoride (“PVDF”) transfer membranes (Millipore, Billerica, MA, USA). After blocking 1 h with a blocking buffer (Bio-Rad), the membrane was incubated overnight with primary antibodies and then with secondary antibodies conjugated with horseradish peroxidase for 45 min (Cell Signaling, Danvers, MA, USA). Antibodies against β-catenin, cleaved-caspase 3, Runx2, Snail, Enolase-1 (Cell Signaling, Danvers, MA, USA), MMP9 (Santa Cruz, Dallas, TX, USA), TRAIL (Novus, Centennial, CO, USA), p53 (Invitrogen, Carlsbad, CA, USA), and β-actin as a control (Sigma, St. Louis, MO, USA), were employed. The level of proteins was determined using a SUPERSIGNAL™ west femto maximum sensitivity substrate (Thermo Scientific, Waltham, MA, USA), and a luminescent image analyzer (LAS-3000, Fuji Film, Tokyo, Japan) was used to quantify signal intensities.

For assay [11], the system named is 4T1.2 cells. Briefly: EdU assay. In kind it is cell-based, mouse. The method, then:
EdU assay. Using a procedure previously reported, approximately 1,000 cells were seeded in 96-well plates on day 1. CM was added on day 2 and cellular proliferation was examined with a fluorescence-based cell proliferation kit (CLICK-IT™ EdU ALEXA FLUOR™ 488 Imaging Kit; Thermo-Fisher, Waltham, MA, USA) on day 4. After fluorescent labeling, the number of fluorescently labeled cells was counted and the ratio to the total number of cells was determined.

On to “Hsp90ab1: heat shock protein 90 alpha family class B member 1 recombinant protein”, for which the Tumor selectivity in assay [1] (non-tumor cells A5) is 1.68; in assay [1] (non-tumor cells MSC) it was 2.86; in assay [2] (non-tumor cells A5), 1.55; in [2] (non-tumor cells MSC), 2.65; in assay [3] (non-tumor cells A5), 1.02; in assay [3] (non-tumor cells MSC) it was 1.74. For the same molecule, in the assay with 4T1.2 cells [4], the TRANSWELL invasion entry is “reduced”. The “level of Kdm3a” value with 4T1.2 cells [5] is reported as “reduced”. Besides, the “Lrp5, MMP9, Runx2, TGFβ, and Snail” value in the assay with 4T1.2 cells [5] is listed as “downregulated”. Further, in the assay with adipose-derived MSCs, the “MTT-based viability of non-tumor cells” value is listed as “elevated”.

B1: enolase 1: enolase 1 recombinant protein (protein, UniProt P17182 2-434, looked up)
Alpha-enolase: SILRIHAREIFDSRGNPTVEVDLYTAKGLFRAAVPSGASTGIYEALELRDNDKTRFMGKGVSQAVEHINKTIAPALVSKKVNVVEQEKIDKLMIEMDGTENKSKFGANAILGVSLAVCKAGAVEKGVPLYRHIADLAGNPEVILPVPAFNVINGGSHAGNKLAMQEFMILPVGASSFREAMRIGAEVYHNLKNVIKEKYGKDATNVGDEGGFAPNILENKEALELLKTAIAKAGYTDQVVIGMDVAASEFYRSGKYDLDFKSPDDPSRYITPDQLADLYKSFVQNYPVVSIEDPFDQDDWGAWQKFTASAGIQVVGDDLTVTNPKRIAKAASEKSCNCLLLKVNQIGSVTESLQACKLAQSNGWGVMVSHRSGETEDTFIADLVVGLCTGQIKTGAPCRSERLAKYNQILRIEEELGSKAKFAGRSFRNPLAK
Regarding B1, the Tumor selectivity in [1] (non-tumor cells A5) came out at 1.48; in assay [1] (non-tumor cells MSC), 3.30; in assay [2] (non-tumor cells A5), 3.29; in assay [2] (non-tumor cells MSC), 7.34; in [3] (non-tumor cells A5), 3.11; in assay [3] (non-tumor cells MSC) it was 6.94. Moreover, the scratch-based migration entry in [6] is “inhibited”. Also, in the assay on EO771 tumor cells, the MTT-based viability result is recorded as “significant decrease”. Moreover, the proliferation entry in assay [7] and in [9] was “inhibited” throughout. The invasion entry in assay [8] and in assay [10] was “inhibited” in each case. Besides, the “expression of MMP9, Runx2, and Snail” value in the assay with EO771 cells is listed as “reduced”. Moreover, the “expression of p53 and TRAIL” value in the assay with EO771 cells is “elevated”. In addition, the EdU-based proliferation result with 4T1.2 cells [11] was “reduced”. The TRANSWELL invasion entry in the assay on 4T1.2 cells [4] is listed as “reduced”. Moreover, the “level of Kdm3a” value in the assay with 4T1.2 cells [5] is recorded as “reduced”. The “Lrp5, MMP9, Runx2, TGFβ, and Snail” value with 4T1.2 cells [5] is “downregulated”. Besides, the “MTT-based viability of non-tumor cells” value in the assay with adipose-derived MSCs is on record as “elevated”.

B2: vinculin: vinculin recombinant protein (protein, UniProt Q64727 1-1066, looked up)
Vinculin: MPVFHTRTIESILEPVAQQISHLVIMHEEGEVDGKAIPDLTAPVAAVQAAVSNLVRVGKETVQTTEDQILKRDMPPAFIKVENACTKLVQAAQMLQSDPYSVPARDYLIDGSRGILSGTSDLLLTFDEAEVRKIIRVCKGILEYLTVAEVVETMEDLVTYTKNLGPGMTKMAKMIDERQQELTHQEHRVMLVNSMNTVKELLPVLISAMKIFVTTKNSKNQGIEEALKNRNFTVEKMSAEINEIIRVLQLTSWDEDAWASKDTEAMKRALASIDSKLNQAKGWLRDPNASPGDAGEQAIRQILDEAGKVGELCAGKERREILGTCKMLGQMTDQVADLRARGQGASPVAMQKAQQVSQGLDVLTAKVENAARKLEAMTNSKQSIAKKIDAAQNWLADPNGGPEGEEQIRGALAEARKIAELCDDPKERDDILRSLGEIAALTSKLGDLRRQGKGDSPEARALAKQVATALQNLQTKTNRAVANSRPAKAAVHLEGKIEQAQRWIDNPTVDDRGVGQAAIRGLVAEGHRLANVMMGPYRQDLLAKCDRVDQLTAQLADLAARGEGESPQARALASQLQDSLKDLKAQMQEAMTQEVSDVFSDTTTPIKLLAVAATAPPDAPNREEVFDERAANFENHSGRLGATAEKAAAVGTANKSTVEGIQASVKTARELTPQVISAARILLRNPGNQAAYEHFETMKNQWIDNVEKMTGLVDEAIDTKSLLDASEEAIKKDLDKCKVAMANIQPQMLVAGATSIARRANRILLVAKREVENSEDPKFREAVKAASDELSKTISPMVMDAKAVAGNISDPGLQKSFLDSGYRILGAVAKVREAFQPQEPDFPPPPPDLEQLRLTDELAPPKPPLPEGEVPPPRPPPPEEKDEEFPEQKAGEVINQPMMMAARQLHDEARKWSSKGNDIIAAAKRMALLMAEMSRLVRGGSGTKRALIQCAKDIAKASDEVTRLAKEVAKQCTDKRIRTNLLQVCERIPTISTQLKILSTVKATMLGRTNISDEESEQATEMLVHNAQNLMQSVKETVREAEAASIKIRTDAGFTLRWVRKTPWYQ
Regarding B2, the Tumor selectivity is recorded as 0.99 in assay [1] (non-tumor cells A5); 1.43 in assay [1] (non-tumor cells Adipose); 1.57 in assay [1] (non-tumor cells MSC); 0.67 in [2] (non-tumor cells A5); 1.27 in [2] (non-tumor cells Adipose); 0.89 in [2] (non-tumor cells MSC). The figures for the Tumor selectivity in [3] (non-tumor cells A5), in assay [3] (non-tumor cells Adipose) and in [3] (non-tumor cells MSC) were 1.13, 1.88 and 1.43, respectively. The EdU-based proliferation entry in the assay with 4T1.2 cells [11] is “reduced”. Also, in the assay on 4T1.2 cells [4], the TRANSWELL invasion entry was “reduced”. Further, in the assay on 4T1.2 cells [5], the “level of Kdm3a” value is on record as “reduced”. Also, in the assay on 4T1.2 cells [5], the “Lrp5, MMP9, Runx2, TGFβ, and Snail” value is listed as “downregulated”.
